The text below walks through data of patent US20230266303A1, “SYSTEM” (GTINVENT LIMITED, priority 2020, published 2023).

Data set [1] has as its system dSH-SY5Y cells. The data set is described as follows: ReadyProbes cell viability assay (cell death) after exposure to dGAE. Conditions: 24 h incubation; for percentage cell death: 1 μM, buffer only 21.6±1.6%. Format: cell-based. How it is done: (§1) Undifferentiated SH-SY5Y human neuroblastoma cells were grown in Dulbecco's Modified Eagle Medium/Nutrient Mixture F-12 (DMEM/F-12) supplemented with 10% Foetal Calf Serum (FCS), 1% Penicillin/Streptomycin (P/S) and 1% L-glutamine. For differentiation, SH-SY5Y cells were plated at a density of 50,000 cells per well in 24-well plates or 300,000 cells per well in 6-well plates. For immunofluorescence, cells were plated onto Menzel-Gläser coverslips (Thermo Scientific). For live-cell imaging, cells were plated on 35-mm dishes on a 1.5-mm coverslip (Mattek). On the first day of differentiation, media was replaced with low-serum culture media (DMEM/F-12 containing 1% FCS, 1% P/S and 1% L-glutamine) containing 10 μM all-trans retinoic acid (RA) (Sigma-Aldrich) and cells were incubated for 48 h. On day 3, this process was repeated with fresh RA and cells were incubated for a further 48 h. On day 5, the cells were washed once in serum-free culture media to remove traces of serum. […] Differentiated cells (dSH-SY5Y) were ready to use for experiments on day 7. […]
Following the addition of dGAE, cell viability was measured using ReadyProbes® Cell Viability Imaging Kit (Life Technologies). […] DAPI fluorescence was captured using a G 365 excitation filter and a LP 420 emission filter with a FT 395 dichroic. Green fluorescence was captured using a FITC filter set (BP 450-490 excitation filter, BP 515-565 emission filter and FT 510 dichroic). Identical acquisition settings were used for all replicates and images were analysed using FIJI. Six fields of view were taken per sample and an average of 4500 cells were analysed per condition. The proportion of buffer-treated cell death was quantified by converting the images to grayscale followed by manually adjusting the threshold and converting it into a binary image to highlight live DAPI-stained cells. The number of cells was automatically counted. The dead cells were counted in the same way and cell death was expressed as a percentage of buffer-treated cells. […]

The subject of data set [2] is dSH-SY5Y cells. Nature of the data set: Internalisation of dGAE-488 into cells by confocal microscopy. Format: cell-based, human. The settings on record: soluble form, 5 μM dGAE-488, live confocal imaging t=0 h to 14 h. How it is done: as §1
FIJI (https://fiji.sc) imaging processing package (J. Schindelin et al., Nat. Methods, vol. 9, no. 7, pp. 676-682, (2012)) was used for all image analysis. For quantification of fluorescence intensities, images were Z-projected to maximal intensity. […] Area-integrated intensity and mean grey value were measured as well as three selections from around the cell with no fluorescence (background). The corrected total cell fluorescence (CTCF) was then calculated using the equation: […]
For quantification of internalised dGAE-488, a focal plane from the middle of the cell that contained maximal DAPI fluorescence was selected and subjected to analysis.
The uptake of soluble and aggregated dGAE into dSH-SY5Y cells was investigated in order to examine whether aggregation state affects the efficiency of internalisation. The labelled dGAE-488 form was used to permit uptake to be visualised and measured having corrected for total cell fluorescence. […]

For the substance “dGAE: recombinant truncated tau, 95 residues fragment of Tau (2N4R), Ile-297 to Glu-391, SEQ ID NO: 4”, the percentage cell death amounted to 34±2.9% in the data set with dSH-SY5Y cells [1] (aggregated dGAE (100 μM agitated 72 h)) and 24.1±1.2% with dSH-SY5Y cells [1] (soluble dGAE (0 h, no agitation)). For the same substance, in the data set on dSH-SY5Y cells [1] (soluble dGAE up to 20 μM), the “cell death on increasing concentration” value is listed as “no further increase in cell death”. The “incubation time at which internalised protein is detected in cells” value in the data set on dSH-SY5Y cells [2] is not above 2 h.
